How the values were obtained:
Test in all cases: cleavage_in_vitro
[1] = test system: T1, OMNI-58 (Collinsella sp. AM13-34); settings: PAM NNNNCCA; TXTL
T1 sequence: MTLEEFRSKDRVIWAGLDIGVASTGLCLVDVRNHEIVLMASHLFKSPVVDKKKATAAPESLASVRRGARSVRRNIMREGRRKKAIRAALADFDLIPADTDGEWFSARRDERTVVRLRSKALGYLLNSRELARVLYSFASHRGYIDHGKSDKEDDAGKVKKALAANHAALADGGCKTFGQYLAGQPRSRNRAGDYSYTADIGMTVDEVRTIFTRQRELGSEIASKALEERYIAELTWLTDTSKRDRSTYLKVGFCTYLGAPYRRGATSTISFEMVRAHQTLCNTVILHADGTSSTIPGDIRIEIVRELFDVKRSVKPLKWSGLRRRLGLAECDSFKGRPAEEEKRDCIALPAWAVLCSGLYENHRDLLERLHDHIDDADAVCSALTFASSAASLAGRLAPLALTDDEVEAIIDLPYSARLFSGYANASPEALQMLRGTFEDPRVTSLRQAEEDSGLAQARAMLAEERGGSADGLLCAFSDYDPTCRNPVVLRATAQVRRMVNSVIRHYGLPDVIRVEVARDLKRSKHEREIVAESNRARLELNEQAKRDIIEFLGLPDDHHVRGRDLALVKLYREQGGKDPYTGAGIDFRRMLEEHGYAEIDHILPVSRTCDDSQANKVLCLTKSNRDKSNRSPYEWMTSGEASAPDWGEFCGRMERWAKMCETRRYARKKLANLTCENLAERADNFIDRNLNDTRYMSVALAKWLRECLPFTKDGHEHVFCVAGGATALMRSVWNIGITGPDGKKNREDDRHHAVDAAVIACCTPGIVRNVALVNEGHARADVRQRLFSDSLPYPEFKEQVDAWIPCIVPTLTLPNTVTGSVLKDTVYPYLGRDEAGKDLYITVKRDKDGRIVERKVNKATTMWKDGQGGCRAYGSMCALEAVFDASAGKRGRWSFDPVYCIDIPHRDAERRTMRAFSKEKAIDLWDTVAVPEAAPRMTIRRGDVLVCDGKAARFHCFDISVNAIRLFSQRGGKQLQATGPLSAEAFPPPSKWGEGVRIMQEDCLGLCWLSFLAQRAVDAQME

[2] = test system: T2, OMNI-71 (Hyphobacterium sp. 2ED5); settings: PAM NGG; TXTL
T2 sequence: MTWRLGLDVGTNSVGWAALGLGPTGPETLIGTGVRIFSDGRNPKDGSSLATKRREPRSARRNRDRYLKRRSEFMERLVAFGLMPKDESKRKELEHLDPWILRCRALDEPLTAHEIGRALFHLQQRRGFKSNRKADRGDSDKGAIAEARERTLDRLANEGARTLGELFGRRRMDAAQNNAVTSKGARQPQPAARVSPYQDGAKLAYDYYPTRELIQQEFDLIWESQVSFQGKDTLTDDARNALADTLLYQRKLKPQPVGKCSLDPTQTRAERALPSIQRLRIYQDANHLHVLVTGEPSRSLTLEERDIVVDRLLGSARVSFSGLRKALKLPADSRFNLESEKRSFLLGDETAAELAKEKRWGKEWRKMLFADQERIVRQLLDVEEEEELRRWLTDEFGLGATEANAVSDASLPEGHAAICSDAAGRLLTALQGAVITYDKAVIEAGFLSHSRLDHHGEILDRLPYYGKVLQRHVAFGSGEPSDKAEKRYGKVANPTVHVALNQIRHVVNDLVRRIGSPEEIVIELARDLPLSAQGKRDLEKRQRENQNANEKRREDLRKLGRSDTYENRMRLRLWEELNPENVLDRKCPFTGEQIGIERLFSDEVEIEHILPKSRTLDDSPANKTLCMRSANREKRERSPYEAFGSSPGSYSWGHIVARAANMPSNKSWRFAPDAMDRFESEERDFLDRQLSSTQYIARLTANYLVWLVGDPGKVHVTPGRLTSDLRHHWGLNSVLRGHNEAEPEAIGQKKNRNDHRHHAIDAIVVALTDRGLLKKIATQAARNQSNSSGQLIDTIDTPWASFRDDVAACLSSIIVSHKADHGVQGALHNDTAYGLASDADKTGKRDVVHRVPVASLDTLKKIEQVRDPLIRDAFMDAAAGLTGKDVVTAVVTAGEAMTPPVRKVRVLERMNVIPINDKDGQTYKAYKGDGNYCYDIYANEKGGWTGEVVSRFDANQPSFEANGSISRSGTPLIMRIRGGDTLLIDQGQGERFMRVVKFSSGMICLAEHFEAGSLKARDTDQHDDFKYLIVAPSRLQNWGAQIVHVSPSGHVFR

[3] = test system: T3, OMNI-56 (Chryseobacterium sp. G0240); settings: PAM NNRNGG; TXTL
T3 sequence: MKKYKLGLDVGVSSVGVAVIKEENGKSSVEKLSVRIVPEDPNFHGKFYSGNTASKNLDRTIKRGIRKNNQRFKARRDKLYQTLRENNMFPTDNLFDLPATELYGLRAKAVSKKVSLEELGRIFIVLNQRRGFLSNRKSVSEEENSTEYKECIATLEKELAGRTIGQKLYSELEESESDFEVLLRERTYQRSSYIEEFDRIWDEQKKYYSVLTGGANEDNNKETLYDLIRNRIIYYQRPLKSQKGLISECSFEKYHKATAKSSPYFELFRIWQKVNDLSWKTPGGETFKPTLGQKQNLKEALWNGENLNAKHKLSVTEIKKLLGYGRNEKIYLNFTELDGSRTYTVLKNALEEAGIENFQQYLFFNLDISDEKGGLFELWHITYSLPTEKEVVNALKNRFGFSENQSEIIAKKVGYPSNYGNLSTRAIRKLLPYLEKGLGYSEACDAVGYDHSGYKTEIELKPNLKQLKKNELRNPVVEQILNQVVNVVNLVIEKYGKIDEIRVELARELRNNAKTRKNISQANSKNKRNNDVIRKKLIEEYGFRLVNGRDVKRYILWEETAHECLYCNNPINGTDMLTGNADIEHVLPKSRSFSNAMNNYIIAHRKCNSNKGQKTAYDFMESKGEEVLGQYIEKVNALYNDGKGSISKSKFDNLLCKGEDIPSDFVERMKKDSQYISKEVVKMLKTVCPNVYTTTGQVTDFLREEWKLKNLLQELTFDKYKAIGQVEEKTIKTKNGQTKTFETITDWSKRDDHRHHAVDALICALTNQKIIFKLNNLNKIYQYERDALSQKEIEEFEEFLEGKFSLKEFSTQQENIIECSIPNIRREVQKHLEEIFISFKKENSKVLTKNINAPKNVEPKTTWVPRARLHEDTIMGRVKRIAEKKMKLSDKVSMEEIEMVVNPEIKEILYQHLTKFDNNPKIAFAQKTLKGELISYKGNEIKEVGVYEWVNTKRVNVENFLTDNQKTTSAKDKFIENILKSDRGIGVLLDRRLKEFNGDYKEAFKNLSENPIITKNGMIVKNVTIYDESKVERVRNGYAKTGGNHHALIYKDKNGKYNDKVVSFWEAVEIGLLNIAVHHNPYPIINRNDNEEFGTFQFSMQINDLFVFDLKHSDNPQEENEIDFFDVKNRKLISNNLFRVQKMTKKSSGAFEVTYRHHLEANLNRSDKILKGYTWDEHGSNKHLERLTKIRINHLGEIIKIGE

[4] = test system: T4, OMNI-65 (Faecalibacterium sp. An192); settings: PAM NNNVTA; TXTL
T4 sequence: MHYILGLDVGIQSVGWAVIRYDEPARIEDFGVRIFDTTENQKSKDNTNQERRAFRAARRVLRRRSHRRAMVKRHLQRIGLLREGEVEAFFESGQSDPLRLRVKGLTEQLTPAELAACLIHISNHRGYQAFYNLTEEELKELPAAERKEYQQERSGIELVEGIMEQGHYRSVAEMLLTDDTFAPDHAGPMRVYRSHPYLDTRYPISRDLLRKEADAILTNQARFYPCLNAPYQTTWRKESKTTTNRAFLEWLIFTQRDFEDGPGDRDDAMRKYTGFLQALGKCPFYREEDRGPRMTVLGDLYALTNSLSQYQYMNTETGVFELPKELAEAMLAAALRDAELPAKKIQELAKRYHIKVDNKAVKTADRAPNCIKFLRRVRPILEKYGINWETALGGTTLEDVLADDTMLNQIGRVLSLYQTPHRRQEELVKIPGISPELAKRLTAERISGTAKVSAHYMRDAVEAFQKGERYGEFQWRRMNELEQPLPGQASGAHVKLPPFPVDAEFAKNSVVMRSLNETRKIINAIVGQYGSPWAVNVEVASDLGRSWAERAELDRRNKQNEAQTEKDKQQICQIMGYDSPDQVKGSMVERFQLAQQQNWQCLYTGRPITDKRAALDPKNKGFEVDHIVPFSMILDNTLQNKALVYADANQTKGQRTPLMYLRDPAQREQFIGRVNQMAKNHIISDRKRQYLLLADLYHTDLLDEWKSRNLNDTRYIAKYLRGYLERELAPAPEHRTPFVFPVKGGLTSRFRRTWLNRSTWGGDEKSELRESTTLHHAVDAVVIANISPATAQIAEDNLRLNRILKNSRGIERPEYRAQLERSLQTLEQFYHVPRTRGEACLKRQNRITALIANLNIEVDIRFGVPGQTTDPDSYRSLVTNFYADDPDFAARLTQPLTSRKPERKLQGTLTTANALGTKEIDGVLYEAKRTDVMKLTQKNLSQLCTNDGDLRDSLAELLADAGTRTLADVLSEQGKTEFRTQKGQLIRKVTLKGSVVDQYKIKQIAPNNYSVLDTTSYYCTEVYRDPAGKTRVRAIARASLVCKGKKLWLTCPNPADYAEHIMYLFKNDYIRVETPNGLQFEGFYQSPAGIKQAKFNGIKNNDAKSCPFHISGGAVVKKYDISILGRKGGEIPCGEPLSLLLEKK

| Sequence | activity (1-depletion score) [1] | activity (1-depletion score) [3] | activity (1-depletion score) [4] | also measured |
| --- | --- | --- | --- | --- |
| GGAAGAGCAGAGCCUUGGUCUCGCCCUAGCGCGGAAAAACGUUUGGGCAAGAGGGCCCGUUAAAGACGGGUCACUCGCGGAGUAUAUCCCGCAGGGUGCUAUUCGCACUCUGCGGGUGAUCUCCUAUUCCCUCCUUUUUU / GGAAGAGCAGAGCCTTGGTCTCNNNNNNNN / NNNNNNNNGAGACCAAGGCTCTGCTCTTCC | 0.86 |  |  |  |
| GGAAGAGCAGAGCCUUGGUCUCGCCCUAGCGCGGAAAAACGUUUGGGCAAGAGGGCCCGUUAAAGACGGGUCACUCGCGGAGUAUAUCCCGCAGGGUGCUUUUCGCACUCUGCGGGUGAUCUCCUUUUCCCUCCUUUUUU / GGAAGAGCAGAGCCTTGGTCTCNNNNNNNN / NNNNNNNNGAGACCAAGGCTCTGCTCTTCC | 0.88 |  |  |  |
| GGAAGAGCAGAGCCUUGGUCUCGCCCUAGCGCGUUGGAAAAGUAACGUUUGGGCAAGAGGGCCCGUUAAAGACGGGUCACUCGCGGAGUAUAUCCCGCAGGGUGCUUUUCGCACUCUGCGGGUGAUCUCCUUUUCCCUCCUUUUUU / GGAAGAGCAGAGCCTTGGTCTCNNNNNNNN / NNNNNNNNGAGACCAAGGCTCTGCTCTTCC | 0.93 |  |  |  |
| GGAAGAGCAGAGCCUUGGUCUCGUUCCGGUUGGAGAAAUCUUUCCGGUAACAAGGUUUAGACCACAAAAUGGAACGGCCUCUUCGGGGGUCGUUCUUUUUUU / GGAAGAGCAGAGCCTTGGTCTCNNNNNNNN / NNNNNNNNGAGACCAAGGCTCTGCTCTTCC |  |  |  | activity (1-depletion score) [2]: 0.96 |
| GGAAGAGCAGAGCCUUGGUCUCGUUGUGAAUUGCUUUCAAAAUUUAUUAUCUUCGAAAUUGGAUUAUAAAUUUUGAAAGCAAUUCACAAUAAGGAUUAUUCCGUUGUGAAAACAUUUAAGCCCCCUCGUCUUACCAUACGGGGGAUUUUUU / GGAAGAGCAGAGCCTTGGTCTCNNNNNNNN / NNNNNNNNGAGACCAAGGCTCTGCTCTTCC |  | 0.53 |  |  |
| GGAAGAGCAGAGCCUUGGUCUCGUUGUGAAUUGCUUUCAUAAUUUAUUAUCUUCGAAAUUGGAUUAUAAAUUAUGAAAGCAAUUCACAAUAAGGAUUAUUCCGUUGUGAAAACAUUUAAGCCCCCUCGUCUUACCAUACGGGGGAUUUUUU / GGAAGAGCAGAGCCTTGGTCTCNNNNNNNN / NNNNNNNNGAGACCAAGGCTCTGCTCTTCC |  | 0.69 |  |  |
| GGAAGAGCAGAGCCUUGGUCUCGUUGUGAAUUGCUUUCGAAAGAAAGCAAUUCACAAUAAGGAUUAUUCCGUUGUGAAAACAUUUAAGCCCCCUCGUCUUACCAUACGGGGGAUUUUUU / GGAAGAGCAGAGCCTTGGTCTCNNNNNNNN / NNNNNNNNGAGACCAAGGCTCTGCTCTTCC |  | 0.69 |  |  |
| GGAAGAGCAGAGCCUUGGUCUCGUUUUGGUUCUCUGAGAAACAGAAGUUCUAAGAUAAGGCUUUACGCCGCAGGGUAUGGUGGUAUCCCAAAUAUUCCACCAUUUGAUUGUAUCUGAAAGCGUCCGGUUCGGGCGCUUUUU / GGAAGAGCAGAGCCTTGGTCTCNNNNNNNN / NNNNNNNNGAGACCAAGGCTCTGCTCTTCC |  |  | 0.94 |  |
| GGAAGAGCAGAGCCUUGGUCUCGUUUUGGUUCUCUGAUGGGAAACAUCAGAAGUUCUAAGAUAAGGCUUUACGCCGCAGGGUAUGGUGGUAUCCCAAAUAUUCCACCAUUUGAUUGUAUCUGAAAGCGUCCGGUUCGGGCGCUUUUU / GGAAGAGCAGAGCCTTGGTCTCNNNNNNNN / NNNNNNNNGAGACCAAGGCTCTGCTCTTCC |  |  | 0.94 |  |
| GGAAGAGCAGAGCCUUGGUCUCGUUUUGGUUCUUCUGGAAACAGAAGUUCUAAGAUAAGGCUUUACGCCGCAGGGUAUGGUGGUAUCCCAAAUAUUCCACCAUUUGAUUGUAUCUGAAAGCGUCCGGUUCGGGCGCUUUUU / GGAAGAGCAGAGCCTTGGTCTCNNNNNNNN / NNNNNNNNGAGACCAAGGCTCTGCTCTTCC |  |  | 0.93 |  |
